In the supplement of paper PMC7125110:
± gives the standard error. This sample holds only a part of the variants without activity.

B1: glmS ribozyme (parent)
chain: AUAAAAGCGCCAGAACUACAGAAAUGUAGUUGACGAGGAGGAGGUUUAUCGAAUUUUCGGCGGAUGCCUCCAAA

Assays:
Details in all cases: with glucosamine-6-phosphate
glucosamine-6-phosphate [1] = variants of: B1; test: self-cleavage kobs at 160 uM GlcN6P; higher = faster cleavage; RNA array
Summary of the method: (§1)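 Glucosamine-6-phosphate (40 μM to 10 mM) in HEPES/KCl/Mg(OAc)2 buffer was flowed over sequenced MiSeq chips, and tiles were imaged over ~14 h. Barcoded ribozyme variants there had been transcribed in situ by E. coli RNA polymerase and were tracked through a hybridised Cy3 probe at 37 °C. One- or two-exponential decay fits to per-tile medians, normalised to baseline and to non-cleaving reference variants, gave kobs. kcat and KM came from weighted Michaelis–Menten fits across concentrations.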

glucosamine-6-phosphate [2] = variants of: B1; test: self-cleavage kobs at 640 uM GlcN6P; higher = faster cleavage; RNA array
Summary of the method: as §1

glucosamine-6-phosphate [3] = variants of: B1; test: self-cleavage kobs at 2500 uM GlcN6P; higher = faster cleavage; RNA array
Summary of the method: as §1

glucosamine-6-phosphate [4] = variants of: B1; test: self-cleavage kobs at 40 uM GlcN6P; higher = faster cleavage; RNA array
Summary of the method: as §1

glucosamine-6-phosphate [5] = variants of: B1; test: self-cleavage kobs at 10000 uM GlcN6P; higher = faster cleavage; RNA array
Summary of the method: as §1

Variant: G51U U69G C71A
- self-cleavage kobs at 160 uM GlcN6P (glucosamine-6-phosphate [1]): 0.00015 ± 5.2e-05 s⁻¹
- self-cleavage kobs at 640 uM GlcN6P (glucosamine-6-phosphate [2]): 7.38e-05 ± 2.2e-05 s⁻¹
- self-cleavage kobs at 2500 uM GlcN6P (glucosamine-6-phosphate [3]): 7.85e-05 ± 3.7e-05 s⁻¹

Variant: G29U C70U
- self-cleavage kobs at 40 uM GlcN6P (glucosamine-6-phosphate [4]): 0.000204 ± 2.4e-05 s⁻¹
- self-cleavage kobs at 160 uM GlcN6P (glucosamine-6-phosphate [1]): 0.000273 ± 4.2e-05 s⁻¹
- self-cleavage kobs at 640 uM GlcN6P (glucosamine-6-phosphate [2]): 0.000574 ± 7.2e-05 s⁻¹
- self-cleavage kobs at 2500 uM GlcN6P (glucosamine-6-phosphate [3]): 0.00187 ± 0.00047 s⁻¹
- self-cleavage kobs at 10000 uM GlcN6P (glucosamine-6-phosphate [5]): 0.00452 ± 0.00093 s⁻¹

Variant: G51C C58A
- self-cleavage kobs at 160 uM GlcN6P (glucosamine-6-phosphate [1]): < 1e-05 s⁻¹
- self-cleavage kobs at 640 uM GlcN6P (glucosamine-6-phosphate [2]): < 1e-05 s⁻¹
- self-cleavage kobs at 2500 uM GlcN6P (glucosamine-6-phosphate [3]): < 1e-05 s⁻¹

Variant: G59C C67G C70G
- self-cleavage kobs at 40 uM GlcN6P (glucosamine-6-phosphate [4]): < 1e-05 s⁻¹

Variant: C11U A42G U54A
- self-cleavage kobs at 160 uM GlcN6P (glucosamine-6-phosphate [1]): 3.87e-05 ± 1.6e-05 s⁻¹
- self-cleavage kobs at 640 uM GlcN6P (glucosamine-6-phosphate [2]): 0.000886 ± 0.00027 s⁻¹

Variant: U65G C67A C71G
- self-cleavage kobs at 160 uM GlcN6P (glucosamine-6-phosphate [1]): 0.000166 ± 5.7e-05 s⁻¹
- self-cleavage kobs at 640 uM GlcN6P (glucosamine-6-phosphate [2]): 4.48e-05 ± 1.8e-05 s⁻¹
- self-cleavage kobs at 2500 uM GlcN6P (glucosamine-6-phosphate [3]): 7.1e-05 ± 1.3e-05 s⁻¹
- self-cleavage kobs at 10000 uM GlcN6P (glucosamine-6-phosphate [5]): 4.47e-05 ± 1.5e-05 s⁻¹

Variant: G7U U69C
- self-cleavage kobs at 160 uM GlcN6P (glucosamine-6-phosphate [1]): < 1e-05 s⁻¹
- self-cleavage kobs at 2500 uM GlcN6P (glucosamine-6-phosphate [3]): < 1e-05 s⁻¹

Variant: G13A G35A G41U C68U
- self-cleavage kobs at 160 uM GlcN6P (glucosamine-6-phosphate [1]): < 1e-05 s⁻¹
- self-cleavage kobs at 640 uM GlcN6P (glucosamine-6-phosphate [2]): < 1e-05 s⁻¹
- self-cleavage kobs at 2500 uM GlcN6P (glucosamine-6-phosphate [3]): < 1e-05 s⁻¹

Variant: A36C U56A
- self-cleavage kobs at 160 uM GlcN6P (glucosamine-6-phosphate [1]): < 1e-05 s⁻¹
- self-cleavage kobs at 640 uM GlcN6P (glucosamine-6-phosphate [2]): < 1e-05 s⁻¹
- self-cleavage kobs at 2500 uM GlcN6P (glucosamine-6-phosphate [3]): < 1e-05 s⁻¹

Variant: G35C A64G
- self-cleavage kobs at 160 uM GlcN6P (glucosamine-6-phosphate [1]): < 1e-05 s⁻¹
- self-cleavage kobs at 640 uM GlcN6P (glucosamine-6-phosphate [2]): < 1e-05 s⁻¹
- self-cleavage kobs at 2500 uM GlcN6P (glucosamine-6-phosphate [3]): < 1e-05 s⁻¹

Variant: G9A C50A
- self-cleavage kobs at 160 uM GlcN6P (glucosamine-6-phosphate [1]): < 1e-05 s⁻¹
- self-cleavage kobs at 640 uM GlcN6P (glucosamine-6-phosphate [2]): < 1e-05 s⁻¹
- self-cleavage kobs at 2500 uM GlcN6P (glucosamine-6-phosphate [3]): < 1e-05 s⁻¹
- self-cleavage kobs at 10000 uM GlcN6P (glucosamine-6-phosphate [5]): < 1e-05 s⁻¹

Variant: G7U G9A U57G C67A
- self-cleavage kobs at 40 uM GlcN6P (glucosamine-6-phosphate [4]): < 1e-05 s⁻¹

Variant: A6C U49C
- self-cleavage kobs at 40 uM GlcN6P (glucosamine-6-phosphate [4]): < 1e-05 s⁻¹
- self-cleavage kobs at 160 uM GlcN6P (glucosamine-6-phosphate [1]): < 1e-05 s⁻¹
- self-cleavage kobs at 10000 uM GlcN6P (glucosamine-6-phosphate [5]): < 1e-05 s⁻¹

Variant: A14U G41U C68A C70U
- self-cleavage kobs at 40 uM GlcN6P (glucosamine-6-phosphate [4]): < 1e-05 s⁻¹

Variant: C11G A36C U55A
- self-cleavage kobs at 160 uM GlcN6P (glucosamine-6-phosphate [1]): < 1e-05 s⁻¹

Variant: C10G A12U U31A A33U G63A
- self-cleavage kobs at 160 uM GlcN6P (glucosamine-6-phosphate [1]): < 1e-05 s⁻¹

Variant: A14C C50G
- self-cleavage kobs at 160 uM GlcN6P (glucosamine-6-phosphate [1]): 5.43e-05 ± 1.5e-05 s⁻¹
- self-cleavage kobs at 640 uM GlcN6P (glucosamine-6-phosphate [2]): 0.000625 ± 0.00028 s⁻¹
- self-cleavage kobs at 2500 uM GlcN6P (glucosamine-6-phosphate [3]): 4.32e-05 ± 1.3e-05 s⁻¹

Variant: G32A G44C G66A C68A
- self-cleavage kobs at 160 uM GlcN6P (glucosamine-6-phosphate [1]): < 1e-05 s⁻¹
- self-cleavage kobs at 640 uM GlcN6P (glucosamine-6-phosphate [2]): < 1e-05 s⁻¹
- self-cleavage kobs at 2500 uM GlcN6P (glucosamine-6-phosphate [3]): < 1e-05 s⁻¹

Variant: G29A A39U G40A
- self-cleavage kobs at 160 uM GlcN6P (glucosamine-6-phosphate [1]): 7.25e-05 ± 2.4e-05 s⁻¹
- self-cleavage kobs at 640 uM GlcN6P (glucosamine-6-phosphate [2]): 0.000163 ± 5.7e-05 s⁻¹
- self-cleavage kobs at 2500 uM GlcN6P (glucosamine-6-phosphate [3]): 0.000397 ± 0.0001 s⁻¹

Variant: G43C G60C
- self-cleavage kobs at 160 uM GlcN6P (glucosamine-6-phosphate [1]): < 1e-05 s⁻¹
- self-cleavage kobs at 640 uM GlcN6P (glucosamine-6-phosphate [2]): < 1e-05 s⁻¹
- self-cleavage kobs at 2500 uM GlcN6P (glucosamine-6-phosphate [3]): < 1e-05 s⁻¹

Variant: G38U C50A C67G
- self-cleavage kobs at 40 uM GlcN6P (glucosamine-6-phosphate [4]): 8.67e-05 ± 3.1e-05 s⁻¹
- self-cleavage kobs at 10000 uM GlcN6P (glucosamine-6-phosphate [5]): 0.000115 ± 3.2e-05 s⁻¹

Variant: A64G G66U C70U
- self-cleavage kobs at 160 uM GlcN6P (glucosamine-6-phosphate [1]): 0.000115 ± 2.1e-05 s⁻¹
- self-cleavage kobs at 640 uM GlcN6P (glucosamine-6-phosphate [2]): 0.000373 ± 9.3e-05 s⁻¹
- self-cleavage kobs at 2500 uM GlcN6P (glucosamine-6-phosphate [3]): 0.000872 ± 0.00017 s⁻¹

Variant: A14G U30A G32A C68A
- self-cleavage kobs at 160 uM GlcN6P (glucosamine-6-phosphate [1]): < 1e-05 s⁻¹

Variant: U31C U69C C70A
- self-cleavage kobs at 40 uM GlcN6P (glucosamine-6-phosphate [4]): < 1e-05 s⁻¹

Variant: G32A U49C C61A
- self-cleavage kobs at 160 uM GlcN6P (glucosamine-6-phosphate [1]): < 1e-05 s⁻¹

Variant: G9U G13A
- self-cleavage kobs at 160 uM GlcN6P (glucosamine-6-phosphate [1]): < 1e-05 s⁻¹
- self-cleavage kobs at 640 uM GlcN6P (glucosamine-6-phosphate [2]): < 1e-05 s⁻¹
- self-cleavage kobs at 10000 uM GlcN6P (glucosamine-6-phosphate [5]): < 1e-05 s⁻¹
